The text below walks through data of US20090286739A1 (FIBREX MEDICAL RESEARCH AND DEVELOPMENT, published 2009).

Non-standard residues stand in square brackets, D forms with d. Primed or numbered codes have the meaning given here. No end group written: not given here. Haic′ = not defined here; Acdn = not defined here

In the assay the target is T1, vascular endothelial (VE) cadherin (human, UniProt P33151 48-784).
T1 sequence (looked up): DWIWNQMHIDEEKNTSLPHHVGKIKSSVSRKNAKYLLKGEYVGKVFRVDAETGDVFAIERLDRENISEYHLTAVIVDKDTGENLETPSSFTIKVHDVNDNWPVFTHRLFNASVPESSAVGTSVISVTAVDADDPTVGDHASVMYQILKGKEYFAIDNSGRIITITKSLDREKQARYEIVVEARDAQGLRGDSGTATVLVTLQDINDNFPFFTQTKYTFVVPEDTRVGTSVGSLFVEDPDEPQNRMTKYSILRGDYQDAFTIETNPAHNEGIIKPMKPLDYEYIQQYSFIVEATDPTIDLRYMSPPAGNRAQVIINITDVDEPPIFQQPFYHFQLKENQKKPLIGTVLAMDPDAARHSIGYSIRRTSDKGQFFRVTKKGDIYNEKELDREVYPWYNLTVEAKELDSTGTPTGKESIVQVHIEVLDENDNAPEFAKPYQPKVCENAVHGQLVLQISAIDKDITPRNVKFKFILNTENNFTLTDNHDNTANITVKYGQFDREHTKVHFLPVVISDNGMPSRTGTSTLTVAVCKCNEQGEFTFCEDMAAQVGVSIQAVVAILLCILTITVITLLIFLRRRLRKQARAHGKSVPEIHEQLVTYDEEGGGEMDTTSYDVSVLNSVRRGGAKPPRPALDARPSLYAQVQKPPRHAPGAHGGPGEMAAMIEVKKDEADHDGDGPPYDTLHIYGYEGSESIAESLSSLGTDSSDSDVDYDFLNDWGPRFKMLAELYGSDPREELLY
As to the kind of experiment: cell-based or functional assay.

On to GHRPLDK[cis‑4‑Acha]ISGGGYR [Gly-His-Arg-Pro-Leu-Asp-Lys-(cis-4-Acha)-Ile-Ser-Gly-Gly-Gly-Tyr-Arg], for which the “Relative RhoA stimulation compared to unstimulated control” value (“Relative RhoA stimulation” below) is 1 fold of unstimulated control.
On to GHRPLDK[Haic′]ISGGGYR [Gly-His-Arg-Pro-Leu-Asp-Lys-Haic-Ile-Ser-Gly-Gly-Gly-Tyr-Arg], for which the “Relative RhoA stimulation” value is 1.3 fold of unstimulated control.

B1: Gly-His-Arg-Pro-Leu-Asp-Lys-Acdn-Ile-Ser-Gly-Gly-Gly-Tyr-Arg (peptide)
peptide: GHRPLDK[Acdn]ISGGGYR-NH2
modifications: reading uncertain; also: printed as Gly-His-Arg-Pro-Leu-Asp-Lys-Acdn-Ile-Ser-Gly-Gly-Gly-Tyr-Arg-NH2
As for B1, the “Relative RhoA stimulation” value was 1.3 fold of unstimulated control.

B2: Gly-His-Arg-Pro-Leu-Asp-Lys-(1S,2R)Achc-Ile-Ser-Gly-Gly-Gly-Tyr-Arg (peptide)
peptide: GHRPLDK[(1S,2R)Achc]ISGGGYR
modifications: not fully specified; printed as Gly-His-Arg-Pro-Leu-Asp-Lys-(1S,2R)Achc-Ile-Ser-Gly-Gly-Gly-Tyr-Arg
As to B2, the “Relative RhoA stimulation” value is 1.5 fold of unstimulated control.
